The chains are these.
B1: 263A11E3 (antibody, V domains shown)
VH: QVQLQESGPGLVKPSETLSLTCAVSGYSISSGYYWGWIRQPPGKGLEWIGSIYHSGSTSYNPSLRSRVTISVDTSKNQFSLKLSSVTAADTAVYYCARDAGGFDYWGQGTLVTVSS
VL: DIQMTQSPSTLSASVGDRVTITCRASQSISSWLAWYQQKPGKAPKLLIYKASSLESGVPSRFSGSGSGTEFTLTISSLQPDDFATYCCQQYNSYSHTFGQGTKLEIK
B2: 11H10C9 (antibody, V domains shown)
VH: QVQLVESGGGVVQPGRSLRLSCAASGFTFSSYAMHWVRQAPGKGLEWVAIIWYDGSNQYYADSVKGRFTISRDNSMNTLYLQMNSLRAEDTAVYYCARVEQWLVSYFDFWGQGTLVTVSS
VL: EIVMTQSPATLSVSPGERATLSCRASQSVSSNLAWYQQKPGQVPRLLIYGASTRATGIPARFSGSGSGTEFTLTISSLQSEDFAVYYCQQYNNWPTFGGGTKVEIK
B3: 15G10D4 (antibody, V domains shown)
VH: B2 VH with T28S, M76K, E100K, F109Y
VL: B2 VL with T72S, T74I

Changes are numbered by the printed parent chain.

The first assay addresses T1, monkey 4-1BB on CHOK1 cells (monkey).
T1 construct: whole, on cells; also called CHOK1-c4-1BB
The assay can be described thus: FACS, CHOK1-c4-1BB cells; Ab 2 ug/ml. The method, boiled down:
(§1)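 CHOK1 stable lines expressing human or monkey 4-1BB were detached with enzyme-free Versene, blocked in 1% goat serum on ice for 30 min and resuspended at 2×10⁶ cells/mL in HBSS with 1% BSA. Purified antibody was bound on ice for 2 h, then cells were fixed in 4% paraformaldehyde and analysed by flow cytometry.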
Background: Flow cytometry measures light scatter and fluorescence of single cells or particles in a stream.
With B1, the average fluorescence intensity is 93.5 MFI.

Molecule B2 returned an average fluorescence intensity of 576 MFI.

Molecule B3 displayed an average fluorescence intensity of 646 MFI.

Another assay has as its target T1, monkey 4-1BB on CHOK1 cells. The assay can be described thus: FACS, CHOK1-c4-1BB cells; Ab 10 ug/ml. The method, boiled down:
as §1
On to B1, for which the average fluorescence intensity is 124 MFI.

As to B2, the average fluorescence intensity is 736 MFI.

As to B3, the average fluorescence intensity was 550 MFI.

The next assay has as its target T2, hFc-tagged human 4-1BB extracellular domain protein (4-1BB-hFc) (human, UniProt Q07011 24-186, limits assumed).
T2 construct: also called immunogen A; 4-1BB^ECD-hFc; not shown: human IgG Fc fragment (hFc) of the pCpC vector
The assay can be described thus: ELISA, coated human 4-1BB-hFc; Ab 0.0032 ug/ml. The protocol:
(§2) The purified immunogen A (4-1BB-hFc), monkey 4-1BB-his, and mouse 4-1BB-his obtained in Example 1 [for the preparation method, see step 1 of Example 1, preparation of immunogen A], of which the extracellular domain of monkey-derived 4-1BB protein (purchased from ACRO biosystems), the extracellular domain of mouse 4-1BB protein (purchased from sino biological) or other immune detection point proteins respectively were diluted with PBS to a final concentration of 1.0 μg/mL, then added with […] per well to 96-well ELISA plate. It was sealed with plastic film and incubated at 4° C. overnight. The next day, the plate was washed twice with the plate-washing solution [PBS containing 0.01% (v/v) Tween20] and blocking solution [PBS containing 0.01% (v/v) Tween 20 and 1% (v/v) BSA] was added and blocked at room temperature for 2 hours. The blocking solution was discarded and 100 μl of the purified 4-1BB antibody obtained in Example 2 was added per well. After incubated at 37° C. for 2 hours, the plate was washed 3 times with a plate-washing solution [PBS containing 0.01% (v/v) Tween20]. A secondary antibody (purchased from Sigma) labeled with HRP (horseradish peroxidase) was added, and after incubated at 37° C. for 2 hours, the plate was washed 3 times with a plate-washing solution [PBS containing 0.01% (v/v) Tween20]. 100 μl of TMB substrate was added per well. After incubated for 30 minutes at room temperature, 100 μl of stop buffer (1.0N HCl) was added per well. The A450 nm values were read using an ELISA plate reader (SpectraMax 384plus, Molecular Device).
Background: An ELISA detects its analyte on a solid surface through an enzyme-linked reagent.
With B1, the OD450 nm was 0.3 OD450 nm.

In the case of B2, the OD450 nm came out at 0.49 OD450 nm.

In turn, B3 yielded an OD450 nm of 0.52 OD450 nm.

The next assay deals with T3, human 4-1BB, full length, on transfected cells (human, UniProt Q07011 24-255).
T3 construct: whole, on cells; also called CHOK1-h4-1BB
T3 sequence (Q07011 24-255): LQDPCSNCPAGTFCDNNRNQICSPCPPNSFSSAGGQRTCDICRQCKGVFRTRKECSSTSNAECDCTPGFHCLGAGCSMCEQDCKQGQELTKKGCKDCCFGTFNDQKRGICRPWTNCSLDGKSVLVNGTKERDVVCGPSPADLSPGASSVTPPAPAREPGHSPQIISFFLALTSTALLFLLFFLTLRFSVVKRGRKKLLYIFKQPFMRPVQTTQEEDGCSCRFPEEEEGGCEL
The assay can be described thus: FACS, CHOK1-h4-1BB cells; Ab 0.4 ug/ml. The method, boiled down: as §1
In turn, B1 returned an average fluorescence intensity of 1120 MFI.

Molecule B2 showed an average fluorescence intensity of 431 MFI.

As to B3, the average fluorescence intensity was found to be 492 MFI.

Another assay deals with T3, human 4-1BB, full length, on …. The assay can be described thus: FACS, CHOK1-h4-1BB cells; Ab 0.016 ug/ml. The essentials:
as §1
Molecule B1 displayed an average fluorescence intensity of 85.6 MFI.

Turning to B2, the average fluorescence intensity came to 58.7 MFI.

On to B3, for which the average fluorescence intensity came out at 98.2 MFI.

The target is the same in a further assay. The assay can be described thus: FACS on CHOK1-h4-1BB cells, Alexa 488 secondary antibody, average fluorescence intensity. From the text:
The pIRES plasmid carrying the full-length gene of monkey-derived […] (the preparation method is the same as the preparation method of the pCpC vector carrying the human-derived IgG Fc fragment (hFc) in “Preparation of immunogen A” of the step (1) in Example 1, in which the database accession number of the amino acid sequence of the extracellular region of monkey 4-1BB protein (Phe19-Thr239) is G7PSE7) was transfected into CHOK1 cell line to obtain CHOK1 stable transfected cell line containing monkey 4-1BB (herein referred to as CHOK1-c4-1BB stable cell line). The CHOK1-h4-1BB stable cell line and the CHOK1-c4-1BB stable cell line were expanded and cultivated to 90% confluence in T-75 cell culture flasks. The medium was exhausted, and washed twice with HBSS buffer (Hanks Balanced Salt Solution, purchased from Invitrogen), and then the cells were treated and collected with enzyme-free cell dissociation solution (Versene solution, purchased from Life Technology). The cells were washed twice with HBSS buffer, and after cell counting, the cells were diluted with HBSS buffer to 2×10⁶ cells per ml, and 1% goat serum blocking solution was added, the percentage being the mass percentage. It was incubated on ice for 30 minutes, and then washed twice with HBSS buffer by centrifugation. The collected cells were suspended in FACS buffer (HBSS containing 1% BSA, the percentage was the mass percentage) to 2×10⁶ cells/mL, and 100 μl per well was added to a 96-well FACS reaction plate. The purified 4-1BB antibody test sample obtained in Example 2 was added, 100 microliters per well and incubated on ice for 2 hours. […] It was washed three times with FACS buffer by centrifugation, and 100 μl of fixative [4% (v/v) paraformaldehyde] per well was added to suspend cells, and washed twice with FACS buffer after 10 minutes by centrifugation. The cells were suspended with 100 microliters of FACS buffer, and the results were detected and analyzed with FACS (FACS Calibur, purchased from BD).
For orientation: EC50 (read off the curve) means the concentration giving half of the maximal effect. On to B1, for which the “EC50 (read off the curve)” value is approximately 0.3 µg/mL.

B2: the “EC50 (read off the curve)” value is approximately 0.1 µg/mL.

B3: the “EC50 (read off the curve)” value is approximately 0.05 µg/mL.

The next assay has as its target T2, hFc-tagged human 4-1BB extracellular …. The assay can be described thus: ELISA, coated human 4-1BB-hFc; Ab 0.08 ug/ml. The protocol:
as §2
Turning to B1, the OD450 nm was determined as 2.59 OD450 nm.

Molecule B2 yielded an OD450 nm of 3.27 OD450 nm.

B3 showed an OD450 nm of 3.35 OD450 nm.

The target is the same in the next assay. The assay is described as follows: ELISA, coated human 4-1BB-hFc; Ab 0.0001 ug/ml. The protocol: as §2
In turn, B1 registered an OD450 nm of 0.07 OD450 nm.

Molecule B2 gave an OD450 nm of 0.15 OD450 nm.

Consider B3, for which the OD450 nm is 0.17 OD450 nm.

A further assay has as its target T1, monkey 4-1BB on CHOK1 cells. The assay can be described thus: FACS, CHOK1-c4-1BB cells; Ab 0.00013 ug/ml. The essentials:
as §1
B1 returned an average fluorescence intensity of 2.4 MFI.

Molecule B2 yielded an average fluorescence intensity of 3 MFI.

In turn, B3 gave an average fluorescence intensity of 3.3 MFI.

Another assay shares this target. The assay can be described thus: FACS, CHOK1-c4-1BB cells; Ab 0.00064 ug/ml. The method, boiled down:
as §1
With B1, the average fluorescence intensity was 2.8 MFI.

B2 yielded an average fluorescence intensity of 3.7 MFI.

For the molecule B3, the average fluorescence intensity amounted to 4.8 MFI.

The target in the next assay is T2, hFc-tagged human 4-1BB extracellular …. The assay can be described thus: ELISA, coated human 4-1BB-hFc; Ab 2 ug/ml. The protocol: as §2
B1 displayed an OD450 nm of 2.74 OD450 nm.

B2: the OD450 nm turned out to be 3.59 OD450 nm.

B3 registered an OD450 nm of 3.61 OD450 nm.

For another assay, the target named is T3, human 4-1BB, full length, on …. The assay is described as follows: FACS, CHOK1-h4-1BB cells; Ab 2 ug/ml. The method, boiled down:
as §1
For the molecule B1, the average fluorescence intensity was 1690 MFI.

With B2, the average fluorescence intensity amounted to 520 MFI.

As to B3, the average fluorescence intensity amounted to 521 MFI.

A further assay has the same target. The assay is described as follows: FACS, CHOK1-h4-1BB cells; Ab 0.00013 ug/ml. The method, boiled down: as §1
The molecule B1 displayed an average fluorescence intensity of 4 MFI.

B2 displayed an average fluorescence intensity of 3.5 MFI.

For B3, the average fluorescence intensity is 4.2 MFI.

For another assay the target is unchanged. The assay can be described thus: FACS, CHOK1-h4-1BB cells; Ab 0.0032 ug/ml. The essentials: as §1
As for B1, the average fluorescence intensity was determined as 22.9 MFI.

For the molecule B2, the average fluorescence intensity came to 18.3 MFI.

B3: the average fluorescence intensity amounted to 28.8 MFI.
